Assay results reported in US20140186348A1 (published 2014).
Numbering of substitutions follows the chain as printed. Like-named read-outs stand apart in the source and are kept apart here. Values belong to the binder of their own block, whether it stands above or below them.

What was measured:
human properdin [1] = target: T1, human properdin (human, UniProt P27918 28-469); test: ELISA
human properdin [2] = target: T1, human properdin; test: ELISA; remark: listed apart in the source
human properdin [3] = target: T1, human properdin; test: ELISA, inhibition of properdin binding to C3b
human properdin [4] = target: T1, human properdin; test: ELISA; remark: listed apart in the source

T1 sequence (P27918 28-469): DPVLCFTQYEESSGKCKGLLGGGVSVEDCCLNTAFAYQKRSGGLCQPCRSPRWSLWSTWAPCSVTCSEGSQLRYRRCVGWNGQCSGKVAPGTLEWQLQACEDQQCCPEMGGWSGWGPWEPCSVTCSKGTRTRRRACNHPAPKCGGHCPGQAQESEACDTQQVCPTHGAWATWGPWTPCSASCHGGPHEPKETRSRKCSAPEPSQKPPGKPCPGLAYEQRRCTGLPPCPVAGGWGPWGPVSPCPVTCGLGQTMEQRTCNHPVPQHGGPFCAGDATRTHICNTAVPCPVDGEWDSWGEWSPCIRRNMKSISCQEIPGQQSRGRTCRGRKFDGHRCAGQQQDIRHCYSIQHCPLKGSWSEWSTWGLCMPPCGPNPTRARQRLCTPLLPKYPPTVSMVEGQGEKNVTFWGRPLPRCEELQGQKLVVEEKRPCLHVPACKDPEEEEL

Kd (human properdin [1]): 0.0236 nM
B1: BAP010hum10 (humanized anti-properdin monoclonal antibody) (antibody, V domains shown)
VH: QVQLQESGPGLVKPSQTLSLTCTVSGYIFTNYPIHWVRQATGQGLEWMGFIDPGGGYDEPDERFRDRVTITADKSTSTAYMELSSLRSEDTAVYYCARRGGGYYLDYWGQG
VL: DIQMTQSPSSLSASVGDRVTITCRASQDISFFLNWYQQKPGKAPKLLIYYTSRYHSGIPPRFSGSGYGTEFTFTISSLEAEDAATYYCQHGNTLPWTFGQG

Kd (human properdin [1]): 0.0207 nM
B2: BAP010hum03 (humanized anti-properdin monoclonal antibody) (antibody, V domains shown)
VH: EVQLVQSGAEVKKPGESLRISCKGSGYIFTNYPIHWIRQSPSRGLEWLGFIDPGGGYDEPDERFRDRVTISADKSISTAYLQWSSLKASDTAMYYCARRGGGYYLDYWGQG
VL: B1 VL with I58V, P60S, Y67S, F73L, E79Q, A80S, A83F, T85V

Kd (human properdin [1]): 0.0138 nM
B3: BAP010hum02 (humanized anti-properdin monoclonal antibody) (antibody, V domains shown)
VH: QVQLQESGPGLVKPSQTLSLTCTVSGYIFTNYPIHWVRQAPGKGLEWVSFIDPGGGYDEPDERFRDRVTISVDTSKNQFSLKLSSVTAADTAVYYCARRGGGYYLDYWGQG
VL: EIVLTQSPATLSLSPGERATLSCRASQDISFFLNWFQQRPGQSPRRLIYYTSRYHSGIPPRFSGSGYGTDFTLTINNIESEDAAYYFCQHGNTLPWTFGQG

Kd (human properdin [2]): 0.118 nM
B4: NM9401-F(ab′)2 (other)
VH: QVQLQQSAPELARPGASVKMSCTASGYIFTNYPIHWVKQRPGQGLEWIGFIDPGGGYDEPDERFRDRATLTADKSSSTAYMQLSSLTSEDSAIYYCARRGGGYYLDYWGQGTTLTVSSAKTT
VL: DIQMTQTTSSLSASLGDRVTISCRASQDISFFLNWYQQKPDGTVKLLIYYTSRYHSGVPSRFSGSGSGTDFSLTINNLEQEDFATYFCQHGNTLPWTFGGGTKLEIKRADAAPTVSIFPPSSEQLTSGGASVVCFLNN

IC50 (human properdin [3]): 10.7 nM
Kd (human properdin [4]): 0.256 nM
Kd (human properdin [2]): 0.101 nM
B5: NM9401-IgG (murine anti-properdin monoclonal antibody, IgG1) (antibody, V domains shown)
VH: QVQLQQSAPELARPGASVKMSCTASGYIFTNYPIHWVKQRPGQGLEWIGFIDPGGGYDEPDERFRDRATLTADKSSSTAYMQLSSLTSEDSAIYYCARRGGGYYLDYWGQGTTLTVSS
VL: DIQMTQTTSSLSASLGDRVTISCRASQDISFFLNWYQQKPDGTVKLLIYYTSRYHSGVPSRFSGSGSGTDFSLTINNLEQEDFATYFCQHGNTLPWTFGGGTKLEIKR

Kd (human properdin [2]): 0.103 nM
B6: NM9401-Fab (Fab, V domains shown)
VH: B5 VH
VL: B5 VL
